These results are taken from PMC12666658.

Test [1] deals with CD3 receptor on T cells (human PBMCs) (human (endogenous in PBMCs)) (UniProt P07766).
Test [2] has the same target. The source holds these as a separate data set.
The target is the same in test [3]. The source holds these as a separate data set.

Sequence of UniProt P07766 (P07766 23-207): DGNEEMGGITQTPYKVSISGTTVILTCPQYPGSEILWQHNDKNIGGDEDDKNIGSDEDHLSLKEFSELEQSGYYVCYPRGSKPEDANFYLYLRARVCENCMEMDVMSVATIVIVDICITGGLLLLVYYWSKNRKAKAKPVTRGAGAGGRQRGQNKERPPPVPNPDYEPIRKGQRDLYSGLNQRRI

Turning to “SadP-scFv UCHT1 lectibody (from UniProt G5DSS1)”, in test [1], the fold increase of CD71 on CD3+ T cells (PBMCs co-cultured with Gb3+ Ramos cells), 5 or 10 nM lectibody, 24 and 48 hours; highest at 10 nM and 48 hours turned out to be 25 fold. The same substance gave a specific lysis of Gb3+ Ramos cells by PBMCs (E:T 5:1), bioluminescence-based cytotoxicity assay, 0.2–10 nM lectibody, 7 to 48 hours; highest at 10 nM and 48 hours in test [2] of 65%. In addition, the fold increase of CD69 on CD3+ T cells (PBMCs co-cultured with Gb3+ Ramos cells), 5 or 10 nM lectibody, 18 and 24 hours; highest at 10 nM and 24 hours in test [3] lay in the range of 5 to 8 fold.
